Values of other authors, collected in publication PMC4932920.

How the values were obtained:
His112 [1] = biological target: T1, His112 (UniProt position 113, VTLAAHLPAEF); assay: other (H/D exchange of individual histidine residues)
His20 [2] = biological target: T2, His20 (UniProt position 21, GKVGAHAGEYG); assay: as above
His89 [3] = biological target: T3, His89 (UniProt position 90, SDLHAHKLRVD); assay: as above
His72 [4] = biological target: T4, His72 (UniProt position 73, TNAVAHVDDMP); assay: as above
His50 [5] = biological target: T5, His50 (UniProt position 51, HFDLSHGSAQV); assay: as above
His112 [6] = biological target: T1, His112; assay: NMR
His20 [7] = biological target: T2, His20; assay: NMR
His89 [8] = biological target: T3, His89; assay: NMR
His72 [9] = biological target: T4, His72; assay: NMR
His50 [10] = biological target: T5, His50; assay: NMR
His103 = His103 (UniProt position 104, FKLLSHCLLVT); assay: other (histidine H/D exchange)
His97 [11] = biological target: T6, His97 (UniProt position 98, HCDKLHVDPEN); assay: other (H/D exchange of individual histidine residues)
His143 [12] = biological target: T7, His143 (UniProt position 144, ANALAHKYH--); assay: as above
His146 [13] = biological target: T8, His146 (UniProt position 147, LAHKYH-----); assay: as above
His77 [14] = biological target: T9, His77 (UniProt position 78, SDGLAHLDNLK); assay: as above
His117 = His117 (UniProt position 118, CVLAHHFGKEF); assay: NMR
His97 [15] = biological target: T6, His97; assay: NMR
His143 [16] = biological target: T7, His143; assay: NMR
His146 [17] = biological target: T8, His146; assay: NMR
His77 [18] = biological target: T9, His77; assay: NMR
[19] = carbonmonoxy (CO-liganded) hemoglobin, R state

Question: With “Hemoglobin A (adult human hemoglobin), alpha chain (Homo sapiens)” as the substance, how does the pKa (His112 [1]; [19]) read?
Answer: Its pKa is 8.1.

Question: What about the pKa (His112 [1]; deoxy hemoglobin, T state) of the same substance?
Answer: The pKa was 8.1.

Question: What about the pKa (His20 [2]; [19]) of the same substance?
Answer: Its pKa is 7.0.

Question: And the pKa (His20 [2]; deoxy hemoglobin, T state)?
Answer: The pKa was 7.6.

Question: What about the pKa (His89 [3]; [19]) of the same substance?
Answer: The pKa was 5.6.

Question: What about the pKa (His89 [3]; deoxy hemoglobin, T state) of the same substance?
Answer: The pKa was 7.2.

Question: What about the pKa (His72 [4]; [19]) of the same substance?
Answer: The pKa was 7.1.

Question: What about the pKa (His72 [4]; deoxy hemoglobin, T state) of the same substance?
Answer: The pKa was 7.3.

Question: What about the pKa (His50 [5]; [19]) of the same substance?
Answer: The pKa was 7.1.

Question: What about the pKa (His50 [5]; deoxy hemoglobin, T state) of the same substance?
Answer: Its pKa is 7.2.

Question: And the pKa (His112 [6]; [19])?
Answer: The pKa was 7.53.

Question: And the pKa (His112 [6]; deoxy hemoglobin, T state)?
Answer: Its pKa is 7.49.

Question: What about the pKa (His20 [7]; [19]) of the same substance?
Answer: Its pKa is 7.08.

Question: And the pKa (His20 [7]; deoxy hemoglobin, T state)?
Answer: The pKa was 7.02.

Question: And the pKa (His89 [8]; [19])?
Answer: Its pKa is 6.25.

Question: And the pKa (His89 [8]; deoxy hemoglobin, T state)?
Answer: The pKa was 6.80.

Question: What about the pKa (His72 [9]; [19]) of the same substance?
Answer: The pKa was 7.27.

Question: What about the pKa (His72 [9]; deoxy hemoglobin, T state) of the same substance?
Answer: Its pKa is 7.47.

Question: And the pKa (His50 [10]; [19])?
Answer: The pKa was 6.90.

Question: What about the pKa (His50 [10]; deoxy hemoglobin, T state) of the same substance?
Answer: The pKa was 7.14.

Question: Which pKa (His103; [19]) does the source give for “Hemoglobin A (adult human hemoglobin), alpha chain residue titrated (Homo sapiens)” here?
Answer: Its pKa is 7.1.

Question: What about the pKa (His103; deoxy hemoglobin, T state) of the same substance?
Answer: Its pKa is 7.1.

Question: Which pKa (His97 [11]; [19]) does the source give for “Hemoglobin A (adult human hemoglobin), beta chain (Homo sapiens)” here?
Answer: The pKa was 6.4.

Question: And the pKa (His97 [11]; deoxy hemoglobin, T state)?
Answer: The pKa was 6.4.

Question: And the pKa (His143 [12]; [19])?
Answer: The pKa was 6.1.

Question: And the pKa (His143 [12]; deoxy hemoglobin, T state)?
Answer: The pKa was 5.6.

Question: What about the pKa (His146 [13]; [19]) of the same substance?
Answer: Its pKa is 7.0.

Question: What about the pKa (His146 [13]; deoxy hemoglobin, T state) of the same substance?
Answer: Its pKa is 8.1.

Question: And the pKa (His77 [14]; [19])?
Answer: Its pKa is 7.8.

Question: What about the pKa (His77 [14]; deoxy hemoglobin, T state) of the same substance?
Answer: The pKa was 7.8.

Question: What about the pKa (His117; [19]) of the same substance?
Answer: Its pKa is 6.39.

Question: And the pKa (His117; deoxy hemoglobin, T state)?
Answer: The pKa was 6.43.

Question: And the pKa (His97 [15]; [19])?
Answer: The pKa was 7.75.

Question: And the pKa (His97 [15]; deoxy hemoglobin, T state)?
Answer: Its pKa is 8.01.

Question: And the pKa (His143 [16]; [19])?
Answer: Its pKa is 5.57.

Question: And the pKa (His143 [16]; deoxy hemoglobin, T state)?
Answer: Its pKa is 4.70.

Question: What about the pKa (His146 [17]; [19]) of the same substance?
Answer: Its pKa is 6.42.

Question: What about the pKa (His146 [17]; deoxy hemoglobin, T state) of the same substance?
Answer: The pKa was 7.93.

Question: And the pKa (His77 [18]; [19])?
Answer: The pKa was 7.79.

Question: What about the pKa (His77 [18]; deoxy hemoglobin, T state) of the same substance?
Answer: The pKa was 7.47.
